Experimental data: the RNAGym collection of RNA variant scans (doi:10.7554/elife.80360)

B1: HDV Ribozyme (parent)
chain: GGCCGGCAUGGUCCCAGCCUCCUCGCUGGCGCCGGCUGGGCAACAUUCCGAGGGGACCGUCCCCUCGGUAAUGGCGAAUGGGACCCA

Variants of: B1
Assay: self-cleavage, relative activity (ratio to wild type); higher = more cleavage; co-transcriptional

Variant	self-cleavage
C64U G80A	0.397
C64U G80U	0.247
C64U U79A	0.597
C62G C66A	0.323
C64U C85U	1.08
C64U C85G	0.851
C64G G81C	0.208
C62G C64G	0.427
C62G C64A	0.608
C62G C64U	0.485
C62A A70G	0.682
C62A A70C	0.886
C64G G73U	0.172
C64G G73C	0.324
U60C A77G	0.831
U60G U79A	0.665
C62U A87C	1.11
C62U A87G	1.05
C64U C75G	0.106
C64A G67U	0.425
U65G A77G	0.831
C63G G80A	0.366
C62A A87C	0.946
C62A A87G	0.867

Variant	self-cleavage
C61G A78G	0.831
U65G A78U	0.569
C66A G81U	0.227
C61A A77G	1.03
C61A A77U	0.389
C61U G74C	0.253
C61U G74A	0.463
C61A G68U	0.623
C66A G82U	0.36
C66A G82C	0.34
C63G A87U	0.71
C64U G67C	0.906
C64A G68A	0.537
C61A C85A	1.09
C61A C85U	1.05
C61U U79G	1.15
C61G A77U	0.394
C63U C66G	0.88
U65A G68U	0.87
C66G C75U	0.157
U65C G68U	0.831
C66A U72C	0.229
C61G G74C	0.225
C61G G74A	0.429

Variant	self-cleavage
C61G C84U	0.544
C61G C84G	0.386
C61U A87U	0.959
C62A	0.979
C62U	0.994
C62G	0.695
U65G C85G	0.692
U65G C85U	0.831
C64U C86A	0.66
C63G G68C	0.232
C66A A87U	0.994
C63A A77G	0.734
U65A G81C	0.502
U65A G81U	0.353
C64U G74C	0.128
C64U G74U	0.569
C63G A71C	0.782
C61G G68C	0.665
C63A C86U	0.784
C63A C86G	1.02
C62A C75U	0.108
C62U C66U	0.953
C66A G67A	0.864
C62G G82C	0.204

Variant	self-cleavage
C61A C75A	0.136
C64G A71C	0.68
C62U C86U	0.845
C61A A70G	0.812
C66A C86G	1.12
U60G A77G	1.09
U65C A71G	0.935
C64A C85A	0.623
C63G C75U	0.154
C62G G81A	0.299
C64A A83G	0.857
C62A G73U	0.212
C63A G68C	0.495
U65A A77U	0.72
C62G G67U	0.423
C61G C62A	0.958
C61G C62U	0.815
C64A U79A	0.796
C64A U79G	0.684
U65G U72G	0.748
C62U A70G	1.09
U65C G74C	0.204
C62A C66U	0.597
C63U A70C	1.07

Variant	self-cleavage
C61G G73A	0.475
C62G A77U	0.388
C66A A71U	0.692
U65C G80A	0.356
C61G G67U	0.649
C61G G67C	0.945
C61A C64U	0.997
U65C G81C	0.227
C64A G76U	0.858
C64A G76A	0.997
C64A G76C	0.95
U65A U72C	0.511
C62G U65A	0.166
C61U A70U	1.02
U65G G80U	0.261
C63G C64G	0.692
U65G G76U	0.966
U65A G82U	0.217
U60C U72C	0.539
C61G G80U	0.275
C61G G80C	0.348
C66A G80C	0.0845
C61G U69C	0.96
C64G A78C	0.269

Variant	self-cleavage
C64G A78G	0.527
C66A U79A	0.696
C64G C75U	0.163
C64U A71U	1.12
C64U A71G	1.07
C62A G76U	1.08
C63U G73C	0.618
C66A C75A	0.248
C61A C86A	0.897
C61A C86U	1.01
C61U G67A	0.562
C61U G67C	0.78
U60C G82U	0.495
C61U A77G	1.12
C66A G76A	1.13
U60G G67U	1.07
C62G A83G	0.404
C62G A83U	0.17
C61A G73C	0.415
U65A A70C	0.643
U60G U69C	1.09
C61G A83G	0.567
C61A A78G	0.678
U65A U79G	0.492

Variant	self-cleavage
U65A U79C	0.467
C61G G76U	1.16
C61U A78U	0.326
C62A A77C	0.623
U65G G81A	0.282
C61U A71C	0.746
U65A G74U	0.428
C64G A70U	0.978
C64G A77C	0.431
C61A A83C	0.342
C62U G73A	0.808
C62U G73U	0.472
U65G G73A	0.363
U60C C63A	1.04
C62G U69G	0.804
C62G U69A	1.04
U60C A83C	0.443
U65C C86U	0.516
C62A A71U	0.892
C62U U65G	0.631
C62U U65C	0.988
C62U G67U	1.02
C62U G67C	0.923
C62A U65A	0.332

Variant	self-cleavage
C62A U65C	0.969
U60G G81U	0.123
C62U G76C	0.941
C61U G68A	0.727
C62G G80C	0.0791
C64A A77U	0.449
C64A A77G	0.703
C64A A71G	0.529
C64U U69A	1.02
C64G A87C	0.778
C64G A87G	0.853
C64G A87U	0.786
U65C U69C	1.02
C61G U79G	0.437
C62U G68C	0.818
C62U G68U	0.68
C64G G76A	0.862
C64U A83G	1.02
U60C U79A	1.23
U60C U79G	0.554
C63A C64A	0.665
U60C C66U	0.997
C64G U72G	0.745
U60C C85U	0.989

Variant	self-cleavage
U60C C85A	0.712
C62A G82U	0.295
C62A G82C	0.271
C66A A77C	0.237
U65G C66A	0.9
C63U U69A	0.975
U60C G73U	0.352
U60C G73C	0.465
C63U A83G	0.653
C63U A83C	0.502
C62U U69C	1.07
C66A C85U	0.985
C61G C66U	1.08
U65C C85G	0.807
U65C C85U	0.997
U60C C64A	1.13
C63A G82C	0.122
C66A C84G	0.692
U60C G74C	0.217
C62U A77C	0.491
C62G U79C	0.529
C62U G82A	0.338
C62U G82C	0.242
C64G U65A	0.799

Variant	self-cleavage
U65G G82A	0.162
C62G G76C	0.937
C62G G76U	1.03
C62A C85G	0.88
U65C A83C	0.867
C61G A71C	0.787
U60C A87C	1.05
C64G C84U	0.831
C64G C84A	0.718
C63A C75G	0.201
C62U U79A	0.95
C61U C66G	0.529
U65C G82C	0.252
C63A A83C	0.271
C63U G81U	0.361
U60G G76U	0.969
C62G A78C	0
C63A U79G	0.682
C63G	0.764
C63U	1
C63A	0.973
C61G C75G	0.113
C61G C75A	0.166
C61U A83U	0.456

Variant	self-cleavage
U60C G67U	1.03
C63U C85G	0.959
C63A G80U	0.2
C64A C84U	0.694
C61A G82C	0.228
U65A A78G	0.831
C64A C86U	0.886
C64A C86G	0.923
C61G A70U	1.04
U60G U72A	0.458
U65A C75A	0.185
C63G G74U	0.529
C61A G74C	0.315
C64U A78U	0.297
C63G U69G	0.731
C63G U69C	0.567
U65G A83U	0.571
U65A C84U	0.799
C61G U65C	1.24
C61U G80A	0.242
C61U G80U	0.217
U65A C86G	1.12
C64G C85A	0.956
C64G C85U	1.17

Variant	self-cleavage
C64G U79G	0.506
C64G U79A	0.692
C62A G68A	0.842
C62A G68U	0.939
C66A A78C	0.142
U60G C61G	0.872
C61A U69C	0.906
C61A U72C	0.686
C61A U72G	0.554
C63U A77U	0.698
C63U A77G	0.882
C61U C64G	0.308
U65G A70C	0.601
C64U A87U	0.804
U65A G76C	1.11
C63G G73A	0.424
C63A A71C	0.525
U60C G80C	0.125
C63G G76U	0.978
C63G C86A	0.95
C63G C86U	0.816
C64A A87G	0.902
U65G G74A	0.3
U65G G68C	0.673

Variant	self-cleavage
U65G G68U	0.491
C61A C62G	0.892
C61A U79C	0.506
C61U G82U	0.518
C64A G81A	0.386
C63G U79G	0.692
C64A G80C	0.125
C64A G80U	0.294
C63U U65C	1.14
U60C G81U	0.424
C64A C66U	0.567
C62A G81U	0.266
U60G U65C	1.17
U60G U65A	0.95
C62A C63A	1.03
C63U A71U	1.02
C63U A71G	1.03
C63A C84U	0.717
U65G C86U	0.966
C64G C66A	0.888
C64G C66G	0.742
C64G C66U	0.955
C66A G68U	0.616
C64U A77U	0.674

Variant	self-cleavage
C64U A77C	0.318
U65C C66U	1.04
U60G C66A	0.831
U65G A87U	1.12
U60G G73U	0.298
U60G G73C	0.323
C64U U72A	0.567
C63A A70U	0.812
C63A A70C	0.883
C63A A70G	0.767
C64G G74A	0.17
C62G C86G	1.14
C61U C85U	0.917
U65C U72C	0.609
U65C U72A	0.665
C66G A77C	0.262
C63U C84G	0.63
C63U C84U	0.726
U65C A78G	0.731
C63G A78U	0.185
C63A G81A	0.446
C63U G74U	0.583
